# Data taken from EP4480961A1 (Consejo Superior De Investigaciones Científicas, dated 2024).
# T1: ovalbumin (UniProt P01012 2-386)
# T1 construct: also called ovoalbumin
# T1 sequence (looked up): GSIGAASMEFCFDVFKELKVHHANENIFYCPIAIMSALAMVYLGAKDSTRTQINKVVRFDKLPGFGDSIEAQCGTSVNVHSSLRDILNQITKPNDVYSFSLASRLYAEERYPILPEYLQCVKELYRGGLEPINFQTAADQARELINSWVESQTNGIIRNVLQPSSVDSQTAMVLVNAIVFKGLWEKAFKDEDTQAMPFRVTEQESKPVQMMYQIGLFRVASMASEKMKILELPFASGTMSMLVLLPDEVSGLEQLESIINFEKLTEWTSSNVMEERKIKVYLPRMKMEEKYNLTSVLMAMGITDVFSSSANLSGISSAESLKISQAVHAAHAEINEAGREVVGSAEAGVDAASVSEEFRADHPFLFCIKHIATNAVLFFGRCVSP
# T2: wild-type E. coli OmpF embedded in the membrane of E. coli MDS42 cells (Escherichia coli, UniProt P02931 23-362)
# T2 construct: whole, on cells
# T2 sequence: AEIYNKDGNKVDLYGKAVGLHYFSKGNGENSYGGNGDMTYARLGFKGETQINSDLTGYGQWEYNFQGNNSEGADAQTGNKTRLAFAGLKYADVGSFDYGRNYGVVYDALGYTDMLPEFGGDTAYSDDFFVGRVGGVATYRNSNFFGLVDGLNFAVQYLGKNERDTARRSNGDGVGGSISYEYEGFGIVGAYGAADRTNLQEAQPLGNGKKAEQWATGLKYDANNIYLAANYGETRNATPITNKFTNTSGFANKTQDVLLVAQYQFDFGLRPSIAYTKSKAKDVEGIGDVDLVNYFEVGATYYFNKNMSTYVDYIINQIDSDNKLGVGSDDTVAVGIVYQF
# Columns and labels:
# human seroalbumin = biological target: T3, human seroalbumin (human, UniProt P02768 25-609); assay: cross-reactivity test, yeast display flow cytometry
# T3 construct: also called hSA
# T3 sequence (P02768 25-609): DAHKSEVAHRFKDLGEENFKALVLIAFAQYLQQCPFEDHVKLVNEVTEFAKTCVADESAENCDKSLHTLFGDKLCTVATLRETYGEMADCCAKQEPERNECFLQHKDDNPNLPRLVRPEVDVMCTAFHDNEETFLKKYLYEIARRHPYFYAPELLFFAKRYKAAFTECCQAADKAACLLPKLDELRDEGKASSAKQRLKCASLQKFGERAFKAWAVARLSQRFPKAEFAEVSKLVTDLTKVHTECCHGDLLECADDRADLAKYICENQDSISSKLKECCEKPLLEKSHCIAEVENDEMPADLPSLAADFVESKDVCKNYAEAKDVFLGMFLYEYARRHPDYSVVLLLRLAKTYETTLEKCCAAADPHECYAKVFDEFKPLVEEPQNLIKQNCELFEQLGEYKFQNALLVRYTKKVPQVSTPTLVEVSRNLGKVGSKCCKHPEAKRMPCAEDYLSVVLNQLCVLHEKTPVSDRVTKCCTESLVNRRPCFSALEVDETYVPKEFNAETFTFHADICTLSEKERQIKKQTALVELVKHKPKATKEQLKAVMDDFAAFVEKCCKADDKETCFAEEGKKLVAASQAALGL
# ovalbumin = biological target: T1, ovalbumin; assay: as above
# [1] = biological target: T4, Y. ruckeri OmpF embedded in the outer membrane of E. coli MDS42 ΔompF cells (Yersinia ruckeri); assay: flow cytometry on E. coli expressing Y. ruckeri OmpF, chimera at 0.1 µM and 1 µM, PBS
# T4 construct: whole, on cells; Cells were fixed with PFA for flow cytometry; also called OmpF Y. ruckeri expressing strain; specific target
# [2] = biological target: T5, soluble recombinant OmpF (outer membrane porin F) from Yersinia ruckeri (Yersinia ruckeri); assay: BLI, biotinylated chimera on streptavidin tips, soluble rOmpF 0.5-2.3 µM, PBS pH 7.4
# T5 construct: also called rOmpF; Y. ruckeri OmpF
# [3] = biological target: T4, Y. ruckeri OmpF embedded in the outer …; assay: flow cytometry titration in fresh water
# [4] = biological target: T2, wild-type E. coli OmpF embedded in the …; assay: flow cytometry titration in fresh water
# [5] = biological target: T4, Y. ruckeri OmpF embedded in the outer …; assay: flow cytometry titration in PBS, 5 concentrations 0.001-3 µM, normalised
# [6] = biological target: T2, wild-type E. coli OmpF embedded in the …; assay: flow cytometry titration in PBS, 5 concentrations 0.001-3 µM, […]
binder,measurement,setting,value
"L1 engineered rcSso7d binder (designed binder, also called clone L1) ATVKFTYQGEEKQVDISKIKMVIRMGQMILFTYDEGGGAMGRGIVSEKDAPKELLQMLEKQ",binding result,human seroalbumin,no binding (tested: 1 µM)
"L2 engineered rcSso7d binder (designed binder, also called clone L2) ATVKFTYQGEEKQVDISKIKYVIRFGQKIMFKYDEGGGAHGSGMVSEKDAPKELLQMLEKQ",binding result,ovalbumin,no binding (tested: 1 µM)
same,binding result,human seroalbumin,no binding (tested: 1 µM)
"DBP1-L1 chimeric protein (designed binder, Biotinylated and immobilised on streptavidin tips for BLI; biotinylated for microscopy and flow cytometry) MADLPQKVSNLSINNKENGGGGGKSSYVPPHLRSRGKPSFERRSPKQKDKVTGGDFFRRAGRQTGNNGGFFGFSKERNGGTSANYNRRGSSNYKSSGNRWVNGKHIPGPKNAKLQKAELFGVHDDPDYHSSGIKFDNYDNIPVDASGKDVPEPILGGRTRGGGGFFNSRNNGSRDYRKHGGNGSFGSTRPRNTGTSNWGSIGGGFRNDNEKNGYGNSNASWWGSATVKFTYQGEEKQVDISKIKMVIRMGQMILFTYDEGGGAMGRGIVSEKDAPKELLQMLEKQ",percentage of double positives,[1],> 75%
same,Kd,[2],119 nM
"DBP1-L2 chimeric protein (designed binder, Biotinylated and immobilised on streptavidin tips for BLI) MADLPQKVSNLSINNKENGGGGGKSSYVPPHLRSRGKPSFERRSPKQKDKVTGGDFFRRAGRQTGNNGGFFGFSKERNGGTSANYNRRGSSNYKSSGNRWVNGKHIPGPKNAKLQKAELFGVHDDPDYHSSGIKFDNYDNIPVDASGKDVPEPILGGRTRGGGGFFNSRNNGSRDYRKHGGNGSFGSTRPRNTGTSNWGSIGGGFRNDNEKNGYGNSNASWWGSATVKFTYQGEEKQVDISKIKYVIRFGQKIMFKYDEGGGAHGSGMVSEKDAPKELLQMLEKQ",percentage of double positives,[1],> 75%
same,Kd,[2],26 nM
"mHP1α-L1 chimeric protein (designed binder, also called mHP1-L1) MGKKTKRTADSSSSEDEEEYVVEKVLDRRMVKGQVEYLLKWKGFSEEHNTWEPEKNLDCPELISEFMKKYKKMKEGENNKPREKSEGNKRKSSFSNSADDIKSKKKREQSNDIARGFERGLEPEKIIGATDSCGDLMFLMKWKDTDEADLVLAKEANVKCPQIVIAFYEERLTWHAYPEDAENKEKESAKSGSATVKFTYQGEEKQVDISKIKMVIRMGQMILFTYDEGGGAMGRGIVSEKDAPKELLQMLEKQ",Kd,[3],140 nM
same,Kd,[4],130 nM
"mHP1α-R2 chimeric protein (designed binder, also called mHP1-R2) MGKKTKRTADSSSSEDEEEYVVEKVLDRRMVKGQVEYLLKWKGFSEEHNTWEPEKNLDCPELISEFMKKYKKMKEGENNKPREKSEGNKRKSSFSNSADDIKSKKKREQSNDIARGFERGLEPEKIIGATDSCGDLMFLMKWKDTDEADLVLAKEANVKCPQIVIAFYEERLTWHAYPEDAENKEKESAKSGSATVKFTYQGEEKQVDISKIKMVMRNGQRIRFMYDEGGGAIGLGEVSEKDAPKELLQMLEKQ",Kd,[5],75 nM
same,Kd,[3],300 nM
same,Kd,[4],280 nM
same,Kd,[6],82 nM
"mHP1α-L2 chimeric protein (designed binder, Biotinylated for flow cytometry) MGKKTKRTADSSSSEDEEEYVVEKVLDRRMVKGQVEYLLKWKGFSEEHNTWEPEKNLDCPELISEFMKKYKKMKEGENNKPREKSEGNKRKSSFSNSADDIKSKKKREQSNDIARGFERGLEPEKIIGATDSCGDLMFLMKWKDTDEADLVLAKEANVKCPQIVIAFYEERLTWHAYPEDAENKEKESAKSGSATVKFTYQGEEKQVDISKIKYVIRFGQKIMFKYDEGGGAHGSGMVSEKDAPKELLQMLEKQ",percentage of double positives,[1],> 75%
